Laboratory results reported in US20190142971A1, “FORMULATION AND DELIVERY OF MODIFIED NUCLEOSIDE, NUCLEOTIDE, AND NUCLEIC ACID COMPOSITIONS” (ModernaTX, Inc., priority 2013, published 2019).

How the values were obtained:
Format in all cases: in vivo
[1] = test system: non-human primates (cynomolgus monkey); assay: Example 22: NHP serum chemistry ALT and AST (Tables 45, 46)
[2] = test system: non-human primates (cynomolgus monkey); assay: Example 21: LNP IV in non-human primates, serum EPO/G-CSF ELISA (Table 37); conditions: for protein expression detectable out to: NHP IV
Procedure: Formulations, listed in Table 33, were characterized by particle size, zeta potential, and encapsulation.
LNP formulations, shown in Table 33 (above), were administered to non-human primates (NHP) (cynomolgus monkey) (n=2) as a bolus intravenous injection (IV) over approximately 30 seconds using a hypodermic needle, which may be attached to a syringe/abbocath or butterfly if needed. The NHP were administered a single modified mRNA IV dose of 0.05 mg/kg of EPO or G-CSF or 0.005 mg/kg of EPO in a dose volume of 0.5 mL/kg. The NHPs were bled 5-6 days before dosing with the modified mRNA LNP formulations to determine protein expression in the serum and a baseline complete blood count. After administration with the modified mRNA formulation the NHP were bled at 8, 24, 48 and 72 hours to determined protein expression. At 24 and 72 hours after administration the complete blood count of the NHP was also determined. Protein expression of G-CSF and EPO was determined by ELISA. Urine from the NHPs was collected over the course of the entire experiment and analyzed to evaluate clinical safety. Samples were collected from the NHPs after they were administered with G-CSF or EPO modified mRNA formulations to determine protein expression using ELISA. Clinical chemistry, hematology, urinalysis and cytokines of the non-human primates were also analyzed.

mice = assay: Example 42B: EPO mRNA dose response IM in mice (Table 68)
Procedure: The mice were bled at 13 hours after the injection to determine the concentration of the human polypeptide in serum in pg/mL.

[3] = 0.05 mg/kg, Pre-dose, Female NHP
[4] = 0.5 mg/kg, Pre-dose, Female NHP

B1: EPO: modified mRNA encoding human erythropoietin, SEQ ID NO: 7, Cap1, fully modified with 5-methylcytosine and pseudouridine; LNP NPA-060-1 in Examples 17-22 (nucleic acid)
chain: GGGAAAUAAGAGAGAAAAGAAGAGUAAGAAGAAAUAUAAGAGCCACCAUGGGAGUGCACGAGUGUCCCGCGUGGUUGUGGUUGCUGCUGUCGCUCUUGAGCCUCCCACUGGGACUGCCUGUGCUGGGGGCACCACCCAGAUUGAUCUGCGACUCACGGGUACUUGAGAGGUACCUUCUUGAAGCCAAAGAAGCCGAAAACAUCACAACCGGAUGCGCCGAGCACUGCUCCCUCAAUGAGAACAUUACUGUACCGGAUACAAAGGUCAAUUUCUAUGCAUGGAAGAGAAUGGAAGUAGGACAGCAGGCCGUCGAAGUGUGGCAGGGGCUCGCGCUUUUGUCGGAGGCGGUGUUGCGGGGUCAGGCCCUCCUCGUCAACUCAUCACAGCCGUGGGAGCCCCUCCAACUUCAUGUCGAUAAAGCGGUGUCGGGGCUCCGCAGCUUGACGACGUUGCUUCGGGCUCUGGGCGCACAAAAGGAGGCUAUUUCGCCGCCUGACGCGGCCUCCGCGGCACCCCUCCGAACGAUCACCGCGGACACGUUUAGGAAGCUUUUUAGAGUGUACAGCAAUUUCCUCCGCGGAAAGCUGAAAUUGUAUACUGGUGAAGCGUGUAGGACAGGGGAUCGCUGAUAAGCUGCCUUCUGCGGGGCUUGCCUUCUGGCCAUGCCCUUCUUCUCUCCCUUGCACCUGUACCUCUUGGUCUUUGAAUAAAGCCUGAGUAGGAAG
modifications: Cap1, 5-methylcytosine, pseudouridine
[1]; 0.05 mg/kg, 14 days, Male NHP
  AST: 32 U/L
[1]; [3]
  ALT: 160 U/L
  AST: 58 U/L
[1]; 0.05 mg/kg, Pre-dose, Male NHP
  ALT: 56 U/L
  AST: 74 U/L
[1]; 0.5 mg/kg, 2 days, Female NHP
  ALT: 77 U/L
  AST: 141 U/L
[1]; 0.5 mg/kg, 2 days, Male NHP
  ALT: 98 U/L
  AST: 125 U/L
[1]; 0.5 mg/kg, 4 days, Female NHP
  ALT: 87 U/L
  AST: 60 U/L
[1]; 0.5 mg/kg, 4 days, Male NHP
  ALT: 94 U/L
  AST: 71 U/L
[1]; 0.5 mg/kg, 7 days, Female NHP
  ALT: 59 U/L
  AST: 47 U/L
[1]; 0.5 mg/kg, 7 days, Male NHP
  ALT: 60 U/L
  AST: 56 U/L
[1]; 0.5 mg/kg, 14 days, Female NHP
  ALT: 44 U/L
  AST: 44 U/L
[1]; 0.5 mg/kg, 14 days, Male NHP
  ALT: 88 U/L
  AST: 82 U/L
[1]; [4]
  ALT: 31 U/L
  AST: 20 U/L
[1]; 0.5 mg/kg, Pre-dose, Male NHP
  ALT: 50 U/L
  AST: 59 U/L
[2]; 0.005 mg/kg IV, 8 hours
  Average Serum Concentration: 387 pg/mL
  Female NHP Serum Concentration: 523 pg/mL
  Male NHP Serum Concentration: 250 pg/mL
[2]; 0.005 mg/kg IV, 24 hours
  Average Serum Concentration: 208 pg/mL
  Female NHP Serum Concentration: 302 pg/mL
  Male NHP Serum Concentration: 113 pg/mL
[2]; 0.005 mg/kg IV, 48 hours
  Average Serum Concentration: <7.8 pg/mL
  Female NHP Serum Concentration: <7.8 pg/mL
  Male NHP Serum Concentration: <7.8 pg/mL
[2]; 0.005 mg/kg IV, 72 hours
  Average Serum Concentration: 0 pg/mL
  Female NHP Serum Concentration: 0 pg/mL
  Male NHP Serum Concentration: 0 pg/mL
[2]; 0.005 mg/kg IV, Pre-bleed
  Average Serum Concentration: 0 pg/mL
  Female NHP Serum Concentration: 0 pg/mL
  Male NHP Serum Concentration: 0 pg/mL
[2]; 0.05 mg/kg IV, 8 hours
  Average Serum Concentration: 13,465 pg/ml
  Female NHP Serum Concentration: 19,858 pg/ml
  Male NHP Serum Concentration: 7,072 pg/ml
[2]; 0.05 mg/kg IV, 24 hours
  Average Serum Concentration: 11,546 pg/ml
  Female NHP Serum Concentration: 18,178 pg/ml
  Male NHP Serum Concentration: 4,913 pg/ml
[2]; 0.05 mg/kg IV, 48 hours
  Average Serum Concentration: 2,895 pg/ml
  Female NHP Serum Concentration: 5,291 pg/ml
  Male NHP Serum Concentration: 498 pg/mL
[2]; 0.05 mg/kg IV, 72 hours
  Average Serum Concentration: 402 pg/mL
  Female NHP Serum Concentration: 744 pg/mL
  Male NHP Serum Concentration: 60 pg/mL
[2]; 0.05 mg/kg IV, Pre-bleed
  Average Serum Concentration: 0 pg/mL
  Female NHP Serum Concentration: 0 pg/mL
  Male NHP Serum Concentration: 0 pg/mL
[2]; 0.005 mg/kg
  protein expression detectable out to: 48 h
[2]; 0.05 mg/kg
  protein expression detectable out to: 72 h
mice; Dose Vol. (μl/mouse) 1, 13 hours
  Average Protein Product, serum: 2.6 pg/mL
mice; Dose Vol. (μl/mouse) 10, 13 hours
  Average Protein Product, serum: 25.9 pg/mL
mice; Dose Vol. (μl/mouse) 25, 13 hours
  Average Protein Product, serum: 18.7 pg/mL
mice; Dose Vol. (μl/mouse) 50, 13 hours
  Average Protein Product, serum: 63.5 pg/mL
mice; Dose Vol. (μl/mouse) 100, 13 hours
  Average Protein Product, serum: 96.2 pg/mL
